The results in this text go back to patent publication US20260049148.

For the data set, the target named is internally quenched peptide probe (MCA)-Gly-Ser-Ala-Ile-Ala-Leu-Tyr-Gly-Gly-Ser-Lys (DNP)-D-Arg with CM AIALY (SEQ ID NO: 5).

B1: human recombinant MMP2 (R&D Systems, catalog No: 902-MP) (protein)
chain: YNFFPRKPKWDKNQITYRIIGYTPDLDPETVDDAFARAFQVWSDVTPLRFSRIHDGEADIMINFGRWEHGDGYPFDGKDGLLAHAFAPGTGVGGDSHFDDDELWTLGEGQVVRVKYGNADGEYCKFPFLFNGKEYNSCTDTGRSDGFLWCSTTYNFEKDGKYGFCPHEALFTMGGNAEGQPCKFPFRFQGTSYDSCTTEGRTDGYRWCGTTEDYDRDKKYGFCPETAMSTVGGNSEGAPCVFPFTFLGNKYESCTSAGRSDGKMWCATTANYDDDRKWGFCPDQGYSLFLVAAHEFGHAMGLEHSQDPGALMAPIYTYTKNFRLSQDDIKGIQELYGASPDIDLGTGPTPTLGPVTPEICKQDIVFDGIAQIRGEIFFFKDRFIWRTVTPRDKPMGPLLVATFWPELPEKIDAVYEAPQEEKAVFFAGNEYWIYSASTLERGYPKPLTSLGLPPDVQRVDAAFNWSKNKKTYIFAGDKFWRYNEVKKKMDPGFPKLIADAWNAIPDNLDAVVDLQGGGHSYFFKGAYYLKLENQSLKSVKFGSIKSDWLGC
Protein B1 gave a Probe Cleavage (kcat/KM) of 39000 M⁻¹ s⁻¹ and a Probe Cleavage (pM/s) of 135 pM/s.
